Test results published in article PMC10709384, “Structure of the complete Saccharomyces cerevisiae Rpd3S-nucleosome complex” (Nature Communications, 2023).

Biological target: the molecule itself
Test: cryo-EM structure; nucleosome (0.9 µM) and Rpd3S (1.8 µM) mixed on ice for 1 h in 50 mM NaCl, 20 mM Na-HEPES pH 7.4, 1 mM TCEP, 4% glycerol; Superose 6 Increase 3.2/300; mild glutaraldehyde cross-linking; single-particle cryo-EM, overall 2.8 Å (Ume1 only at more than 8 Å)

B1: Rco1 (natural protein, S. cerevisiae)
chain: MDTSKKDTTRSPSHSNSSSPSSSSLSSSSSKEKKRPKRLSSQNVNYDLKRRKIITSEGIERSFKNEHSNLAVEDNIPEEEPKELLEKDSKGNIIKLNEPSTISEDSKVSVTGLPLNKGPSEKIKRESLWNYRKNLGGQSNNSEMTLVPSKRFTQVPKNFQDLNRNDLKTFLTENMTEESNIRSTIGWNGDIINRTRDREPESDRDNKKLSNIRTKIILSTNATYDSKSKLFGQNSIKSTSNASEKIFRDKNNSTIDFENEDFCSACNQSGSFLCCDTCPKSFHFLCLDPPIDPNNLPKGDWHCNECKFKIFINNSMATLKKIESNFIKQNNNVKIFAKLLFNIDSHNPKQFQLPNYIKETFPAVKTGSRGQYSDENDKIPLTDRQLFNTSYGQSITKLDSYNPDTHIDSNSGKFLICYKCNQTRLGSWSHPENSRLIMTCDYCQTPWHLDCVPRASFKNLGSKWKCPLHSPTKVYKKIHHCQEDNSVNYKVWKKQRLINKKNQLYYEPLQKIGYQNNGNIQIIPTTSHTDYDFNQDFKITQIDENSIKYDFFDKIYKSKMVQKRKLFQFQESLIDKLVSNGSQNGNSEDNMVKDIASLIYFQVSNNDKSSNNKSASKSNNLRKLWDLKELTNVVVPNELDSIQFNDFSSDEIKHLLYLKKIIESKPKEELLKFLNIENPENQSE
notes: Rco1, S. cerevisiae, amplified from genomic DNA of strain BJ5464; cloned into a 438-A vector with no tag; Two copies (Rco1A in the core module, Rco1B in the auxiliary module) stand in the Rpd3S complex; also called Rco1A; Rco1B
  binding result: binds
